{"source": "patent US20250051437A1", "about": "(University of California, published 2025)", "binders": {"B1": {"name": "humanized anti-CDH17 antibody 07-0663-h7 (antibody, human IgG1, kappa, V domains shown)", "VH": "QVQLVQSGAEVKKPGSSVKISCKVSGYTFTDHTIHWMRQAPGQGLEWIGYIFPRDDIVVYAQKFQGRATLTADKSTSTAYMELSSLRSEDTAVYYCARPPYYYSRNFYFDYWGQGTTLTVSS", "VL": "DIQMTQSPSSLSASVGDRVTITCRVSSIISSSKLHWYQQKPGKAPKPLIYGTSTLASGVPSRFSGSGSGTDYTLTISSLQPEDFATYYCQQWSNYPFTFGQGTKLEIKR", "notes": "Human IgG1 / kappa"}}, "key": {"Peptide 2 [1]": {"biological_target": "T1, Peptide 2 (also: biotin label, position not given here)", "T1 construct": "LDANGII with the first residue L changed to A; also called ADANGII", "T1 peptide": "ADANGII", "experiment": "titration ELISA, antibody 1500 to 0.157 ng/ml, biotinylated peptide on streptavidin-coated plate"}, "Peptide 7 [2]": {"biological_target": "T2, Peptide 7 (also: biotin label, position not given here)", "T2 construct": "LDANGII with the seventh residue I changed to A; also called LDANGIA", "T2 peptide": "LDANGIA", "experiment": "titration ELISA, antibody 1500 to 0.157 ng/ml, biotinylated peptide on streptavidin-coated plate"}, "Peptide 8 [3]": {"biological_target": "T3, Peptide 8 (also: biotin label, position not given here)", "T3 construct": "LDANGII with the third residue A changed to G; also called LDGNGII", "T3 peptide": "LDGNGII", "experiment": "titration ELISA, antibody 1500 to 0.157 ng/ml, biotinylated peptide on streptavidin-coated plate"}, "Peptide 1 [4]": {"biological_target": "T4, Peptide 1 (also: biotin label, position not given here)", "T4 construct": "also called Original 7-mer peptide; LDANGII", "T4 peptide": "LDANGII", "experiment": "titration ELISA, antibody 1500 to 0.157 ng/ml, biotinylated peptide on streptavidin-coated plate"}, "[5]": {"biological_target": "T5, human CDH17-mGFP fusion protein overexpressed on HEK293T cells (clone G11) (human, UniProt Q12864 23-832)", "T5 construct": "also called HEK293T CDH17mGFP Clone G11; HEK293T Human CDH17mGFP G11; not shown: mGFP fluorescent protein fused to CDH17", "experiment": "KinExA, cell-based, HEK293T CDH17mGFP clone G11", "description": "The cell-based antibody affinity (KD) of the anti-CDH17 antibodies was measured by KinExA 4000 (Sapidyne Instrument, Boise, Idaho). Briefly, HEK293T overexpressing CDH17-fluorescent protein fusion (i.e., human CDH17-mGFP, monkey CDH17-mGFP, mouse CDH17-mGFP or rat CDH17-mGFP) were detached with Versene and equilibrated with either 50 pM, 200 pM, 20 nM, or 50 nM antibody in 2% FBS/DMEM at 4° C. overnight. The cell concentration started at 5×10⁶ cells/mL or 1×10⁷ cells/mL and 2-fold serial dilutions were performed up to 10 points. The next day, the cells were centrifuged at 1500 rpm for 10 min and the supernatants were saved. […] In contrast, while the humanized anti-CDH17 antibody, 07-0653-h43, fails to bind mouse CDH17 protein, it binds rat CDH17 protein equally well as to human and monkey CDH17 protein such that its Kp is less than about 1 nM for human, monkey and rat CDH17 proteins with overlapping 95% confidence interval values."}, "[6]": {"biological_target": "T6, human cadherin-17 (CDH17), endogenously expressed on human cancer cell lines (LS513, SNU-C1, PaTu8988s, … (human, UniProt Q12864 23-832))", "T6 construct": "also called LS513 (Colon, CDH17+); HPAF2", "experiment": "flow cytometry (iQue) on SNUC1 cells, 0.2 µg Ab"}, "[7]": {"biological_target": "T6, human cadherin-17 (CDH17), endogenously …", "experiment": "KinExA, cell-based, SNUC1 cells"}, "[8]": {"biological_target": "T6, human cadherin-17 (CDH17), endogenously …", "experiment": "flow cytometry (iQue) on PATU8988S cells, 0.2 µg Ab"}, "[9]": {"biological_target": "T7, rat CDH17 fused to moxGFP, overexpressed on HEK293T cells (rat, UniProt P55281 22-827)", "T7 construct": "whole, on cells; also called HEK293T Rat CDH17mGFP mass pop; rat CDH17-moxGFP", "T7 sequence (P55281 22-827)": "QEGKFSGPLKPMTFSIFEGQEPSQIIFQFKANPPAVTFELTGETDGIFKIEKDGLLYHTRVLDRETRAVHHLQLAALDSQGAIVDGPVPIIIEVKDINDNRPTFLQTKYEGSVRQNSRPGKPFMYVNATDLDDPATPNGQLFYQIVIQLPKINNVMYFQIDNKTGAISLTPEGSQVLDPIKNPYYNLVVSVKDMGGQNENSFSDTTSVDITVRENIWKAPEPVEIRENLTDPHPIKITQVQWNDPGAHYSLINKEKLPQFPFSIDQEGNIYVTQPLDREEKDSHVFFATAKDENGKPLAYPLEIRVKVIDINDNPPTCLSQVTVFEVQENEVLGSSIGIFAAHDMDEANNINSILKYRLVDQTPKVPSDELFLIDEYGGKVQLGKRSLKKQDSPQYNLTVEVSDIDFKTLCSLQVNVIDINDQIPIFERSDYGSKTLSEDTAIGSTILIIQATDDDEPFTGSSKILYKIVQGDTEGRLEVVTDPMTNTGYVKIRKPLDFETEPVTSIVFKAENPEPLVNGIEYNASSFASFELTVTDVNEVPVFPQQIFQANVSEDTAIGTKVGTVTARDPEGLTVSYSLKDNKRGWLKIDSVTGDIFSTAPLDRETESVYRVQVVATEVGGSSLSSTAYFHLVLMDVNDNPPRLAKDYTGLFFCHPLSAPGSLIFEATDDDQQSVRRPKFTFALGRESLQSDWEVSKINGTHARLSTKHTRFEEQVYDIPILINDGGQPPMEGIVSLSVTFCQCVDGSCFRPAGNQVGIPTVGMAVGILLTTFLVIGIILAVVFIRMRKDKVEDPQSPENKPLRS", "experiment": "flow cytometry (BD C6) on HEK293T Rat CDH17 moxGFP cells", "description": "To determine relative antigen binding strengths of the humanized antibodies, FACS assays were carried out as essentially described in Example 1. […] Using a BD Biosciences Accuri™ C6 Flow Cytometer (San Jose, CA), antibody binding based on Alexa Fluor® 647 fluorescence was measured in the FL4-H channel and fusion protein overexpression based on GFP fluorescence was measured in the FL1-H channel."}, "Peptide 2 [10]": {"biological_target": "T1, Peptide 2", "experiment": "titration ELISA, biotinylated peptide on streptavidin-coated plate"}, "Peptide 6": {"biological_target": "T8, Peptide 6 (also: biotin label, position not given here)", "T8 construct": "LDANGII with the sixth residue I changed to A; also called LDANGAI", "T8 peptide": "LDANGAI", "experiment": "titration ELISA, biotinylated peptide on streptavidin-coated plate"}, "Peptide 7 [11]": {"biological_target": "T2, Peptide 7", "experiment": "titration ELISA, biotinylated peptide on streptavidin-coated plate"}, "Peptide 4": {"biological_target": "T9, Peptide 4 (also: biotin label, position not given here)", "T9 construct": "LDANGII with the fourth residue N changed to A; also called LDAAGII", "T9 peptide": "LDAAGII", "experiment": "titration ELISA, biotinylated peptide on streptavidin-coated plate"}, "Peptide 5": {"biological_target": "T10, Peptide 5 (also: biotin label, position not given here)", "T10 construct": "LDANGII with the fifth residue G changed to A; also called LDANAII", "T10 peptide": "LDANAII", "experiment": "titration ELISA, biotinylated peptide on streptavidin-coated plate"}, "Peptide 8 [12]": {"biological_target": "T3, Peptide 8", "experiment": "titration ELISA, biotinylated peptide on streptavidin-coated plate"}, "Peptide 1 [13]": {"biological_target": "T4, Peptide 1", "experiment": "titration ELISA, biotinylated peptide on streptavidin-coated plate"}, "Peptide 3": {"biological_target": "T11, Peptide 3 (also: biotin label, position not given here)", "T11 construct": "LDANGII with the second residue D changed to A; also called LAANGII", "T11 peptide": "LAANGII", "experiment": "titration ELISA, biotinylated peptide on streptavidin-coated plate"}}, "note": "Where no end group is shown, it is not given here."}
{"binder": "B1", "values": [{"measurement": "EC50", "setting": "Peptide 2 [1]", "result": 0.126, "unit": "nM"}, {"measurement": "EC50", "setting": "Peptide 7 [2]", "result": 0.117, "unit": "nM"}, {"measurement": "EC50", "setting": "Peptide 8 [3]", "result": 2.98, "unit": "nM"}, {"measurement": "EC50", "setting": "Peptide 1 [4]", "result": 0.16, "unit": "nM"}, {"measurement": "Kd", "setting": "[5]", "result": 0.152, "unit": "nM"}, {"measurement": "Antibody Binding Activity by Flow iQue", "setting": "[6]", "result": 163000}, {"measurement": "Kd", "setting": "[7]", "result": 0.157, "unit": "nM"}, {"measurement": "Antibody Binding Activity by Flow iQue", "setting": "[8]", "result": 102000}, {"measurement": "binding result", "setting": "[9]", "result": "no binding (tested: 1 µg)"}, {"measurement": "ELISA reading at 1500 ng/ml antibody, lower of two rows", "setting": "Peptide 2 [10]", "result": 2.71}, {"measurement": "ELISA reading at 1500 ng/ml antibody, upper of two rows", "setting": "Peptide 2 [10]", "result": 2.65}, {"measurement": "ELISA reading at 1500 ng/ml antibody, lower of two rows", "setting": "Peptide 6", "result": 0.0357}, {"measurement": "ELISA reading at 1500 ng/ml antibody, upper of two rows", "setting": "Peptide 6", "result": 0.0371}, {"measurement": "binding result", "setting": "Peptide 6", "result": "no binding (tested: 1500 ng/ml)"}, {"measurement": "ELISA reading at 1500 ng/ml antibody, lower of two rows", "setting": "Peptide 7 [11]", "result": 2.74}, {"measurement": "ELISA reading at 1500 ng/ml antibody, upper of two rows", "setting": "Peptide 7 [11]", "result": 2.8}, {"measurement": "ELISA reading at 1500 ng/ml antibody, lower of two rows", "setting": "Peptide 4", "result": 0.038}, {"measurement": "ELISA reading at 1500 ng/ml antibody, upper of two rows", "setting": "Peptide 4", "result": 0.0379}, {"measurement": "binding result", "setting": "Peptide 4", "result": "no binding (tested: 1500 ng/ml)"}, {"measurement": "ELISA reading at 1500 ng/ml antibody, lower of two rows", "setting": "Peptide 5", "result": 0.0383}, {"measurement": "ELISA reading at 1500 ng/ml antibody, upper of two rows", "setting": "Peptide 5", "result": 0.0394}, {"measurement": "binding result", "setting": "Peptide 5", "result": "no binding (tested: 1500 ng/ml)"}, {"measurement": "ELISA reading at 1500 ng/ml antibody, lower of two rows", "setting": "Peptide 8 [12]", "result": 2.14}, {"measurement": "ELISA reading at 1500 ng/ml antibody, upper of two rows", "setting": "Peptide 8 [12]", "result": 2.1}, {"measurement": "ELISA reading at 1500 ng/ml antibody, lower of two rows", "setting": "Peptide 1 [13]", "result": 2.76}, {"measurement": "ELISA reading at 1500 ng/ml antibody, upper of two rows", "setting": "Peptide 1 [13]", "result": 3.1}, {"measurement": "ELISA reading at 1500 ng/ml antibody, lower of two rows", "setting": "Peptide 3", "result": 0.0369}, {"measurement": "ELISA reading at 1500 ng/ml antibody, upper of two rows", "setting": "Peptide 3", "result": 0.0377}, {"measurement": "binding result", "setting": "Peptide 3", "result": "no binding (tested: 1500 ng/ml)"}]}
